Assay results: article PMC8038991 (2021)
Ends that are not written are not given here.

How the values were obtained:
[1] = biological target: purified wild type ZZ fragment p62 (122-175) of the ITC table (Fig. 3b) (human, UniProt Q13501 122-175); assay: ITC
[2] = biological target: N132Q ZZ fragment p62 (122-175) (Homo sapiens); assay: ITC
N132Q ZZ fragment p62 (122-175) (Homo sapiens), sequence (chain, as listed by the source N132Q): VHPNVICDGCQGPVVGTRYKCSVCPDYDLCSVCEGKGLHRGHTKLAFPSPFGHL

Row | Binder | Kd [1] [µM] | Kd [2] [µM]
1 | KIFS | 51.8 | 
2 | WIFS | 374 | 
3 | RIFS (also: two Zn2+ ions bound) [RIFS tetrapeptide (Nt-Arg)] |  | 21.4
4 | HIFS | 300 | 
5 | YIFS (also: two Zn2+ ions bound) [YIFS tetrapeptide (Nt-Tyr)] |  | 143
